Experimental data taken from patent publication US20180282410A1 (Hoffmann-La Roche, published 2018).
Numbering of substitutions follows the chain as printed. Read-outs that look alike come from different tables or passages of the source.

T1: full-length human Robo 4 (on cells) (human, UniProt Q8WZ75 28-1007)
T1 sequence: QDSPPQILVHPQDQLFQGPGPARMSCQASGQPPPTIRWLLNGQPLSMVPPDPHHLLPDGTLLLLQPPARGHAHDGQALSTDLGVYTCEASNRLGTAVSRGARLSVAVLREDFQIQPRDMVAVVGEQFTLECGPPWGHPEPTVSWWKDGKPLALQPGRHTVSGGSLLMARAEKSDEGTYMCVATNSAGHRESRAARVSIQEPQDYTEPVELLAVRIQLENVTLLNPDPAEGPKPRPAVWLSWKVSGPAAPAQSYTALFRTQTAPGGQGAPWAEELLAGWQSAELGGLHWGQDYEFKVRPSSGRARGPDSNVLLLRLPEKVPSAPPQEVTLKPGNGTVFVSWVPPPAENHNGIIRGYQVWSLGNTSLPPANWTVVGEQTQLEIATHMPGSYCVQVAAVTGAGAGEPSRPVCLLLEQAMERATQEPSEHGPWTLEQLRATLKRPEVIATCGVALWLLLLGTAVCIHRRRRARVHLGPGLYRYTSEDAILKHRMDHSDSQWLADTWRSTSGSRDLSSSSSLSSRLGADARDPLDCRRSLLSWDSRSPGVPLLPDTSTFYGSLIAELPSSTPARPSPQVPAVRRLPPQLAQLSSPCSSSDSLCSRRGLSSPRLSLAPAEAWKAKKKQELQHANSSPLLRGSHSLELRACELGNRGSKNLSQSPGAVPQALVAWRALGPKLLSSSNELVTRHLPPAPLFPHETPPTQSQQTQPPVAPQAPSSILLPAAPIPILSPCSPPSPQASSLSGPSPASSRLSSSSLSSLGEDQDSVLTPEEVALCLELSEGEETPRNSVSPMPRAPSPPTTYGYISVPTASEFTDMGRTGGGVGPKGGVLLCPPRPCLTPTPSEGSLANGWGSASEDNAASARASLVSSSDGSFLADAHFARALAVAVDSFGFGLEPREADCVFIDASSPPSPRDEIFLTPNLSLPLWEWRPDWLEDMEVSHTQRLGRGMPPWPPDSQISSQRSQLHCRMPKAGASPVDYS

T2: mouse Robo 4 on MS-1 mouse endothelial cells (mouse, UniProt Q8C310 28-1012)
T2 sequence: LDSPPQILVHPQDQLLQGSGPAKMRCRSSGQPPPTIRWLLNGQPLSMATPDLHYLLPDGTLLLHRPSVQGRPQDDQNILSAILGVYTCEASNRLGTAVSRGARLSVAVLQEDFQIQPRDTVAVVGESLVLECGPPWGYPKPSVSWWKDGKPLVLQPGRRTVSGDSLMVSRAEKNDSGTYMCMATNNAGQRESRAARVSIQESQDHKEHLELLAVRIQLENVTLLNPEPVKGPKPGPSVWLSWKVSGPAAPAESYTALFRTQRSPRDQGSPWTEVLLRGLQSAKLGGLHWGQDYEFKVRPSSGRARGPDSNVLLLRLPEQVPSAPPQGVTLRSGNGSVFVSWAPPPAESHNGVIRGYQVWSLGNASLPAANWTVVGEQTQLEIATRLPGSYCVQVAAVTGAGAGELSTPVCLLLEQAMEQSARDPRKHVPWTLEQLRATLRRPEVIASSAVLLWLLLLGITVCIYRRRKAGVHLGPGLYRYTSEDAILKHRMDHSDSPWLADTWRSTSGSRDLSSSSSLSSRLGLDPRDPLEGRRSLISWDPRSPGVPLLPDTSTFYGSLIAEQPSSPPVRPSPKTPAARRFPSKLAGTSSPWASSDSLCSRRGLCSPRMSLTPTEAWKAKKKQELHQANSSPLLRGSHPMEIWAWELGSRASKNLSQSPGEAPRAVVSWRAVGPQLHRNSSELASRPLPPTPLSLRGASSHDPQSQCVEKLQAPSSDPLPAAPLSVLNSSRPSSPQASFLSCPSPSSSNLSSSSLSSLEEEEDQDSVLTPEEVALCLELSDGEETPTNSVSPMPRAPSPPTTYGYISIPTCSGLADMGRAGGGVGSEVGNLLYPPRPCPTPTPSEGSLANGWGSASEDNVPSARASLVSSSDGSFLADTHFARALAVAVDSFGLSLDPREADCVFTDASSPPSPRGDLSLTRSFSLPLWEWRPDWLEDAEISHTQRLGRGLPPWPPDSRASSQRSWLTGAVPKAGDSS

B1: Molecule F, 2+1 CrossFab-IgG (VH/VL exchange in CD3 binder, CD3 binder V9, Robo 4 binders 01F05) (bispecific antibody)
chain 1: not shown
chain 2: QVQLKQSGAELVKPGASVKISCKTSVYTFTYGYMHWVEQKPGQGLEWIGRIDPDSGNSMYNQKFQGRATLTRDKSSSTVYMELRSLTSEDSAVYYCARSMRYSGYRDYALDLWGQGTQVTVSSASTKGPSVFPLAPSSKSTSGGTAALGCLVKDYFPEPVTVSWNSGALTSGVHTFPAVLQSSGLYSLSSVVTVPSSSLGTQTYICNVNHKPSNTKVDKKVEPKSCDKTHTCPPCPAPEAAGGPSVFLFPPKPKDTLMISRTPEVTCVVVDVSHEDPEVKFNWYVDGVEVHNAKTKPREEQYNSTYRVVSVLTVLHQDWLNGKEYKCKVSNKALGAPIEKTISKAKGQPREPQVCTLPPSRDELTKNQVSLSCAVKGFYPSDIAVEWESNGQPENNYKTTPPVLDSDGSFFLVSKLTVDKSRWQQGNVFSCSVMHEALHNHYTQKSLSLSPGK
chain 3: QLVLTQSPSASASLGASVKLTCTLSSQHSSYGITWLQQHPDKAPKYVMYLKSDGSHTKGADIPDRFSGSSSGVHRYLSISNVQPEDEAIYFCVTYDSTHVFGSGTQLTVLGQPKAAPSVTLFPPSSEELQANKATLVCLISDFYPGAVTVAWKADSSPVKAGVETTTPSKQSNNKYAASSYLSLTPEQWKSHRSYSCQVTHEGSTVEKTVAPTECS
chain 4: EVQLVESGGGLVQPGGSLRLSCAASGYSFTGYTMNWVRQAPGKGLEWVALINPYKGVSTYNQKFKDRFTISVDKSKNTAYLQMNSLRAEDTAVYYCARSGYYGDSDWYFDVWGQGTLVTVSSASVAAPSVFIFPPSDEQLKSGTASVVCLLNNFYPREAKVQWKVDNALQSGNSQESVTEQDSKDSTYSLSSTLTLSKADYEKHKVYACEVTHQGLSSPVTKSFNRGEC
B2: Molecule G, 1+1 Fab-CrossFab (VH/VL exchange in CD3 binder, CD3 binder V9, Robo 4 binder 01E06) (bispecific antibody)
chain 1: EVQLVESGGGLSQPGNSLKLSCEASGFTFRNYDMSWVRQAPGKGLEWVAYISSGGGPIYYVDAVKGRFTISRDNAKNLLFLQMNNLRSEDTAVYYCARDLADIGVFDYWGQGTMVTVSSASTKGPSVFPLAPSSKSTSGGTAALGCLVKDYFPEPVTVSWNSGALTSGVHTFPAVLQSSGLYSLSSVVTVPSSSLGTQTYICNVNHKPSNTKVDKKVEPKSCDGGGGSGGGGSDIQMTQSPSSLSASVGDRVTITCRASQDIRNYLNWYQQKPGKAPKLLIYYTSRLESGVPSRFSGSGSGTDYTLTISSLQPEDFATYYCQQGNTLPWTFGQGTKVEIKSSASTKGPSVFPLAPSSKSTSGGTAALGCLVKDYFPEPVTVSWNSGALTSGVHTFPAVLQSSGLYSLSSVVTVPSSSLGTQTYICNVNHKPSNTKVDKKVEPKSC
chain 2: DFKMTQSPDILSPSLGESVTITCQSSQNIYSNLAWYQQKPGEHPKLLIYTASILADGIPSRFTGSGSGTQFSLKISSLQPDDVANYYCQQYVYYRTFGPGTKLEIKRTVAAPSVFIFPPSDEQLKSGTASVVCLLNNFYPREAKVQWKVDNALQSGNSQESVTEQDSKDSTYSLSSTLTLSKADYEKHKVYACEVTHQGLSSPVTKSFNRGEC
chain 3: B1 chain 4
B3: Molecule C, 1+1 CrossFab-IgG (VH/VL exchange in CD3 binder, CD3 binder V9, Robo 4 binder 01E06) (bispecific antibody)
chain 1: not shown
chain 2: B2 chain 2
chain 3: B1 chain 4
chain 4: DKTHTCPPCPAPEAAGGPSVFLFPPKPKDTLMISRTPEVTCVVVDVSHEDPEVKFNWYVDGVEVHNAKTKPREEQYNSTYRVVSVLTVLHQDWLNGKEYKCKVSNKALGAPIEKTISKAKGQPREPQVCTLPPSRDELTKNQVSLSCAVKGFYPSDIAVEWESNGQPENNYKTTPPVLDSDGSFFLVSKLTVDKSRWQQGNVFSCSVMHEALHNHYTQKSLSLSPGK
B4: Molecule I, 1+1 Fab-CrossFab (VH/VL exchange in CD3 binder, CD3 binder V9, Robo 4 binder 01F09) (bispecific antibody)
chain 1: QIQLQESGPGLVKPSQSLSLTCSVTGYSISSGSLWTWIRQFPGNNLEWMGYISYAGGIDYNPSLTSRISITRDTSRNQFFLQLESVTTQDTATYYCATPGGYPFHFDYWGQGTMVTVSSASTKGPSVFPLAPSSKSTSGGTAALGCLVKDYFPEPVTVSWNSGALTSGVHTFPAVLQSSGLYSLSSVVTVPSSSLGTQTYICNVNHKPSNTKVDKKVEPKSCDGGGGSGGGGSDIQMTQSPSSLSASVGDRVTITCRASQDIRNYLNWYQQKPGKAPKLLIYYTSRLESGVPSRFSGSGSGTDYTLTISSLQPEDFATYYCQQGNTLPWTFGQGTKVEIKSSASTKGPSVFPLAPSSKSTSGGTAALGCLVKDYFPEPVTVSWNSGALTSGVHTFPAVLQSSGLYSLSSVVTVPSSSLGTQTYICNVNHKPSNTKVDKKVEPKSC
chain 2: QPVLTQSPSASASLGASVKLTCTLNSQFSTYNIGWYQQHRDKPPKYVMFVKGDGGHSKADGIPDRFSGSSSGADRYLTISNIQAEDEAIYFCGADYNNAGQYGCVFGSGTHFTVLGQPKAAPSVTLFPPSSEELQANKATLVCLISDFYPGAVTVAWKADSSPVKAGVETTTPSKQSNNKYAASSYLSLTPEQWKSHRSYSCQVTHEGSTVEKTVAPTECS
chain 3: B1 chain 4
B5: Molecule M, 2+1 CrossFab-IgG, inverted, with charge modifications (VH/VL exchange in CD3 binder, charge modification in Robo 4 binders, CD3 binder of SEQ ID … (bispecific antibody)
chain 1: QVQLKQSGAELVKPGASVKISCKTSVYTFTYGYMHWVEQKPGQGLEWIGRIDPDSGNSMYNQKFQGRATLTRDKSSSTVYMELRSLTSEDSAVYYCARSMRYSGYRDYALDLWGQGTQVTVSSASTKGPSVFPLAPSSKSTSGGTAALGCLVEDYFPEPVTVSWNSGALTSGVHTFPAVLQSSGLYSLSSVVTVPSSSLGTQTYICNVNHKPSNTKVDEKVEPKSCDKTHTCPPCPAPEAAGGPSVFLFPPKPKDTLMISRTPEVTCVVVDVSHEDPEVKFNWYVDGVEVHNAKTKPREEQYNSTYRVVSVLTVLHQDWLNGKEYKCKVSNKALGAPIEKTISKAKGQPREPQVCTLPPSRDELTKNQVSLSCAVKGFYPSDIAVEWESNGQPENNYKTTPPVLDSDGSFFLVSKLTVDKSRWQQGNVFSCSVMHEALHNHYTQKSLSLSP
chain 2: not shown
chain 3: EVQLLESGGGLVQPGGSLRLSCAASGFTFSTYAMNWVRQAPGKGLEWVSRIRSKYNNYATYYADSVKGRFTISRDDSKNTLYLQMNSLRAEDTAVYYCVRHGNFGNSYVSWFAYWGQGTLVTVSSASVAAPSVFIFPPSDEQLKSGTASVVCLLNNFYPREAKVQWKVDNALQSGNSQESVTEQDSKDSTYSLSSTLTLSKADYEKHKVYACEVTHQGLSSPVTKSFNRGEC
chain 4: B1 chain 3 with E127K, E128K

Columns and labels:
Assay in all cases: cell-based or functional assay
[1] = molecular target: T1, full-length human Robo 4 (on cells)
[2] = molecular target: T2, mouse Robo 4 on MS-1 mouse endothelial …
[3] = molecular target: T1, full-length human Robo 4 (on cells); remark: listed apart in the source
[4] = molecular target: T1, full-length human Robo 4 (on cells); remark: listed apart in the source
[5] = molecular target: T2, mouse Robo 4 on MS-1 mouse endothelial …; remark: listed apart in the source

Binder | EC50 of T-cell mediated killing of HUVECs (LDH release, human PBMCs, E:T 10:1), 24 h [1] [nM] | EC50 of T-cell mediated killing of HUVECs (LDH release, human PBMCs, E:T 10:1), 48 h [1] [nM] | EC50 of T-cell mediated killing of MS-1 cells (LDH release, human PBMCs, E:T 10:1), 24 h [2] [nM] | EC50 of T-cell mediated killing of MS-1 cells (LDH release, human PBMCs, E:T 10:1), 48 h [2] [nM] | EC50 of T-cell mediated killing of HUVECs (LDH release, human PBMCs, E:T 10:1), 24 h [3] [nM] | EC50 of T-cell mediated killing of HUVECs (LDH release, human PBMCs, E:T 10:1), 48 h [3] [nM] | EC50 of T-cell mediated killing of HUVECs (LDH release, human pan T cells, E:T 5:1, 22 h) [4] [nM] | EC50 of T-cell mediated killing of MS-1 cells (LDH release, human pan T cells, E:T 5:1, 17 h) [5] [nM]
B1 | 0.065 | 0.322 | ~0.164 | 0.196 | 0.104 | 0.154 |  | 
B2 |  |  |  |  |  |  | 0.036 | 0.352
B3 |  |  |  |  |  |  | 0.046 | 0.472
B4 |  |  |  |  |  |  | 0.198 | 4.56
B5 |  |  | 0.275 | 0.119 | 0.173 | 0.125 |  | 
